From PMC11643043

Target: soluble CD20^Avi
Assay: SEC-MALS

soluble CD20^Avi
stoichiometry N: 2
